Target: T1, CD229 hDI/DIII/DIV mDII (human; mouse, UniProt Q9HBG7 48-158; Q01965 159-249; Q9HBG7 251-655, limits assumed)
T1 construct: domain: DI;domain: DII;domain: DIII/DIV; Expressed on transiently transfected COS cells; also called chimeric mouse human molecule where the second Ig domain of Ly9 was substituted the corresponding mouse domain
T1 sequence (looked up): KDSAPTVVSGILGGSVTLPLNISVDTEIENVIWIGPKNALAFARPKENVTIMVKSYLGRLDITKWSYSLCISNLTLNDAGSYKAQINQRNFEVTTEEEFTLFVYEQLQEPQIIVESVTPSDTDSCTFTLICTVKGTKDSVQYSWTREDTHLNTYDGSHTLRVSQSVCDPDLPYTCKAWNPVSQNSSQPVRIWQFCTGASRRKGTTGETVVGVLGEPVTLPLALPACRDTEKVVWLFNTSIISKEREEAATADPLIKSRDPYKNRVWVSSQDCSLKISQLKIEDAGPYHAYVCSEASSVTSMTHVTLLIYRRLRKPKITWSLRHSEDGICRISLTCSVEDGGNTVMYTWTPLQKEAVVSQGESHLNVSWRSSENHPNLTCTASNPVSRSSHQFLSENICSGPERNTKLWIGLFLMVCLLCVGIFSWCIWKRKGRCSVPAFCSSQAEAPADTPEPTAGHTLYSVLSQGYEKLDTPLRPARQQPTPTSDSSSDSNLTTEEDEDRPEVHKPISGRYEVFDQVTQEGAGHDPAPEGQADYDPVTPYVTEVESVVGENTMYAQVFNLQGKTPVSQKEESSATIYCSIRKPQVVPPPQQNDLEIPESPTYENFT
Experiment: flow cytometry on transiently transfected COS cells
Description: The mapping to the first or second domain was done as described in Romero et al 2005. Three different human Ly9 constructs were used: full-length human Ly9, a Ly9 isoform that […] and a chimeric mouse human molecule where the second Ig domain of Ly9 was substituted the corresponding mouse domain. The transfected cells were stained with different anti-human antibodies using flow cytometry.
^aCOS cells were transiently transfected with chimeric human (h)/mouse (m) constructs or the isoform lacking the first V-like Ig domain (CD229 ΔDI) described in Materials and Methods. CD229 mAbs were assayed by flow cytometry: +, Detection of protein expression, −, nondetection of protein expression. ^bDomain recognized by the mAb.

binding result: no binding
B1: HLy9.1.84 (antibody, V domains shown)
VH: QMQLQESGPELVKPGASVKISCKASGYTFTHYYINWVQQRPGQGLEWIGWIFPESGSTYYSEKFKAKATLTVDKSSSTAYMLLSSLTSEDSAVYFCARGTGFFDYWGQGTTLTVSS
VL: QIVLTQSPAIMSASPGEKVTVTCSASSSVSYMFWYQQKPGFSPRLLIYDTSNLASGVPVRFSGSGSGTSYSLTISRMEAEDAATYYCQQWSSYPPTFGGGTKLEIK
notes: also called HLy91.184

Source: patent US20260201032A1 (UNIVERSITAT DE BARCELONA, published 2026)
